Experimental data as given in patent US20090042805A1 (CHIESI FARMACEUTICI S P A, published 2009).
* marks the point of attachment. Quinaldoyl = O=C(c1ccc2ccccc2n1)*

B1: Ac-FDESD-cho (peptide)
peptide: Ac-FDESD-aldehyde
SMILES: CC(=O)N[C@@H](Cc1ccccc1)C(=O)N[C@@H](CC(=O)O)C(=O)N[C@@H](CCC(=O)O)C(=O)N[C@@H](CO)C(=O)N[C@H](C=O)CC(=O)O
B2: Ac-LDEKD-cho (peptide)
peptide: Ac-LDEKD-aldehyde
SMILES: CC(=O)N[C@@H](CC(C)C)C(=O)N[C@@H](CC(=O)O)C(=O)N[C@@H](CCC(=O)O)C(=O)N[C@@H](CCCCN)C(=O)N[C@H](C=O)CC(=O)O
B3: Ac-LDEAD-cho (peptide)
peptide: Ac-LDEAD-aldehyde
SMILES: CC(=O)N[C@@H](CC(C)C)C(=O)N[C@@H](CC(=O)O)C(=O)N[C@@H](CCC(=O)O)C(=O)N[C@@H](C)C(=O)N[C@H](C=O)CC(=O)O
B4: Ac-VDEAD-cho (peptide)
peptide: Ac-VDEAD-aldehyde
SMILES: CC(=O)N[C@H](C(=O)N[C@@H](CC(=O)O)C(=O)N[C@@H](CCC(=O)O)C(=O)N[C@@H](C)C(=O)N[C@H](C=O)CC(=O)O)C(C)C
B5: Ac-LDESD-cho (peptide)
peptide: Ac-LDESD-aldehyde
SMILES: CC(=O)N[C@@H](CC(C)C)C(=O)N[C@@H](CC(=O)O)C(=O)N[C@@H](CCC(=O)O)C(=O)N[C@@H](CO)C(=O)N[C@H](C=O)CC(=O)O
B6: Ac-VDESD-cho (peptide)
peptide: Ac-VDESD-aldehyde
SMILES: CC(=O)N[C@H](C(=O)N[C@@H](CC(=O)O)C(=O)N[C@@H](CCC(=O)O)C(=O)N[C@@H](CO)C(=O)N[C@H](C=O)CC(=O)O)C(C)C
B7: Ac-LDEGD-cho (peptide)
peptide: Ac-LDEGD-aldehyde
SMILES: CC(=O)N[C@@H](CC(C)C)C(=O)N[C@@H](CC(=O)O)C(=O)N[C@@H](CCC(=O)O)C(=O)NCC(=O)N[C@H](C=O)CC(=O)O

Experiments:
Experiment in all cases: cell-based or functional assay
[1] = molecular target: T1, Human recombinant caspase-2 (human, UniProt P42575 170-452, limits assumed)
T1 sequence (looked up): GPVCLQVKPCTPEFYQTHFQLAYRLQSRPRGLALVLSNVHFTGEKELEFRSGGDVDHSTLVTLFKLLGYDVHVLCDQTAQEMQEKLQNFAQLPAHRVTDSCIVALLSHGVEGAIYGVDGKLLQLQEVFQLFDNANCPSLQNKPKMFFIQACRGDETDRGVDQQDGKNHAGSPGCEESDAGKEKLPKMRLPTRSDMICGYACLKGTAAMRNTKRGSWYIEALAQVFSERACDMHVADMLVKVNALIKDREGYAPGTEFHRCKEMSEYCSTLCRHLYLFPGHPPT

[2] = molecular target: T2, Human recombinant caspase-6 (human, UniProt P55212 24-293, limits assumed)
T2 sequence (looked up): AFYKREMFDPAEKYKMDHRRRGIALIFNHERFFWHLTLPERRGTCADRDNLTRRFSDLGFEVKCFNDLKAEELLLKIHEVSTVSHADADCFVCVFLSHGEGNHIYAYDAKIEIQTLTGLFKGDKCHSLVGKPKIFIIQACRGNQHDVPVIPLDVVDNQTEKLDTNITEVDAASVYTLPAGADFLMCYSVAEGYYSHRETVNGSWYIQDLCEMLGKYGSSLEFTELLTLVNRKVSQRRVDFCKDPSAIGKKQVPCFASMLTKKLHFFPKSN

[3] = molecular target: T1, Human recombinant caspase-2; remark: listed apart in the source

| Binder | IC50 (nM), inhibition of Ac-VDVAD-AMC cleavage by human recombinant caspase-2 [1] [nM] | IC50, inhibition of Ac-VEID-AMC cleavage by human recombinant caspase-6 [2] [µM] | IC50, inhibition of caspase-2 [3] [nM] |
| --- | --- | --- | --- |
| B1 | 800 |  |  |
| B2 | 300 |  |  |
| B3 | 85 | ~2 |  |
| Ac-VDEGD-aldehyde [VDEGD pentapeptidic-based inhibitor] | 260 |  |  |
| B4 | 85 |  |  |
| Quinaldoyl-VDVAD-{CH2O(2,6-difluorophenyl)} [Qco-VDVAD-CH2O(2,6-difluorophenyl)] |  |  | 80 |
| B5 | 300 |  |  |
| B6 | 175 |  |  |
| Ac-VDVAD-aldehyde [Ac-VDVAD-cho] | 75 |  |  |
| B7 | 430 |  |  |
